To fix the notation:
B1: DX-2922 (antibody, V domains shown)
VH: EVQLLESGGGLVQPGGSLRLSCAASGFTFSHYLMTWVRQAPGKGLEWVSYISPSGGHTIYADSVKGRFTISRDNSKNTLYLQMNSLRAEDTAVYYCARVARGIAARSRTSYFDYWGQGTLVTVSS
VL: EIVLTQSPGTLSLSPGERATLSCRTSQFVNSNYLAWYQQKPGQAPRLLIYGASSRATGIPDRFSGSGSGTDFTLTISRLEPEDFAVYYCQQSSRTPWTFGQGTKVEIK
notes: also called X101-A01; 559A-X0101-A01
B2: X115-B07 (antibody, V domains shown)
VH: B1 VH with R98M, A100G, R101Q, A104R, A105G, D113A, Y114Q
VL: B1 VL
notes: also called 559A-X115-B07; 559A-X0115-B07
B3: X115-F02 (Fab, V domains shown)
VH: EVQLLESGGGLVQPGGSLRLSCAASGFTFSHYIMMWVRQAPGKGLEWVSGIYSSGGITVYADSVKGRFTISRDNSKNTLYLQMNSLRAEDTAVYYCAYRRIGVPRRDEFDIWGQGTMVTVSS
VL: DIQMTQSPSTLSASVGDRVTITCRASQSISSWLAWYQQKPGKAPKLLIYKASTLESGVPSRFSGSGSGTEFTLTISSLQPDDFATYYCQQYNTYWTFGQGTKVEIK
notes: also called 559A-X115-F02; 559A-X0115-F02
B4: X115-G04 (antibody, V domains shown)
VH: B3 VH with I101T
VL: B3 VL
notes: also called 559A-X115-G04; 559A-X0115-G04
B5: X115-A03 (antibody, V domains shown)
VH: B3 VH with Y98W, E108S, I111M
VL: B3 VL
notes: also called 559A-X115-A03; 559A-X0115-A03
B6: X115-D01 (antibody, V domains shown)
VH: EVQLLESGGGLVQPGGSLRLSCAASGFTFSIYSMHWVRQAPGKGLEWVSSIYPSRGMTWYADSVKGRFTISRDNSKNTLYLQMNSLRAEDTAVYYCAYRRTGIPRRDAFDIWGQGTMVTVSS
VL: B3 VL
notes: also called 559A-X115-D01; 559A-X0115-D01
B7: X67-F01 (IgG) (antibody, V domains shown)
VH: EVQLLESGGGLVQPGGSLRLSCAASGFTFSAYSMIWVRQAPGKGLEWVSYIRPSGGRTTYADSVKGRFTISRDNSKNTLYLQMNSLRAEDTAVYYCARGGLLLWQRELKSNYFDYWGQGTLVTVSS
VL: DIQMTQSPSSLSAFVGDRVTITCRASQPIDNYLNWYHQKPGKAPKLLIYAASRLQSGVPSRLSGSGFGTDFTLTISSLQPEDFGNYYCQQSYTVPYTFGGGTKVEIR
notes: printed HC runs into CH1
B8: X67-F10 (IgG) (antibody, V domains shown)
VH: B7 VH with Q105T
VL: B7 VL
notes: printed HC runs into CH1
B9: X67-H04 (IgG) (antibody, V domains shown)
VH: B7 VH with Q105E
VL: B7 VL
notes: printed HC runs into CH1; also called 559A-X67-H04
B10: DX-2922 (antibody, V domains shown)
VH: B1 VH
VL: B1 VL
notes: Germlined IgG produced in CHO cells; only the variable domains are printed; also called X101-A01; 559A-X0101-A01
B11: X115-B07 (antibody, V domains shown)
VH: B1 VH with R98M, A100G, R101Q, A104R, A105G, D113A, Y114Q
VL: B1 VL
notes: only variable domains given; also called 559A-X115-B07; 559A-X0115-B07
B12: X115-F02 (Fab, V domains shown)
VH: B3 VH
VL: B3 VL
notes: as for B3
B13: X115-G04 (antibody, V domains shown)
VH: B3 VH with I101T
VL: B3 VL
notes: only variable domains given; also called 559A-X115-G04; 559A-X0115-G04
B14: X115-A03 (antibody, V domains shown)
VH: B3 VH with Y98W, E108S, I111M
VL: B3 VL
notes: only variable domains given; also called 559A-X115-A03; 559A-X0115-A03
B15: X115-D01 (antibody, V domains shown)
VH: B6 VH
VL: B3 VL
notes: only variable domains given; also called 559A-X115-D01; 559A-X0115-D01
B16: M145-D11 (Fab, V domains shown)
VH: EVQLLESGGGLVQPGGSLRLSCAASGFTFSHYRMSWVRQAPGKGLEWVSSIYPSGGRTVYADSVKGRFTISRDNSKNTLYLQMNSLRAEDTAVYYCAKDKFEWRLLFRGIGNDAFDIWGQGTMVTVSS
VL: QSVLTQPPSVSVSPGQTASITCSGDKLGDKYTSWYQQRPGQSPVLVIYQDIKRPSGIPERFSGSNSGNTATLTISGTQAMDEADYYCQAWDSPNARVFGSGTKVTVL
notes: also called 559A-M145-D11 (sFab); 559A-M0145-D11
B17: M06-D09 (antibody, V domains shown)
VH: EVQLLESGGGLVQPGGSLRLSCAASGFTFSFYYMVWVRQAPGKGLEWVSVIYPSGGITVYADSVKGRFTISRDNSKNTLYLQMNSLRAEDTAVYYCARDKWAVMPPYYYYAMDVWGQGTTVTVSS
VL: DIQMTQSPSSLSASVGDRVTITCRASQSIRNYLNWYQQKPGKAPNLLIYAASTLQSGVPARFSGSGSGTDFTLTISSLQPEDFATYYCQQLSGYPHTFGQGTKLEIK
notes: Only variable domains printed; also called M6-D09; 559A-M06-D09
B18: M35-G04 (antibody, V domains shown)
VH: EVQLLESGGGLVQPGGSLRLSCAASGFTFSYYHMSWVRQAPGKGLEWVSVISPSGGSTKYADSVKGRFTISRDNSKNTLYLQMNSLRAEDTAVYYCARGGSSDYAWGSYRRPYYFDYWGQGTLVTVSS
VL: DIQMTQSPATLSLSPGERATLSCRASQSVSSYLAWYQQKPGQAPRLLIYDASNRATGIPARFSGSGSGTDFTLTISSLEPEDFAVYYCQQRSNWPRGFTFGPGTKVDIK
notes: Only variable domains printed; also called 559A-M35-G04; 559A-M0035-G04
B19: M29-D09 (Fab, V domains shown)
VH: EVQLLESGGGLVQPGGSLRLSCAASGFTFSWYTMVWVRQAPGKGLEWVSYIYPSGGATFYADSVKGRFTISRDNSKNTLYLQMNSLRAEDTAVYYCAMGSYDYIWGFYSDHWGQGTLVTVSS
VL: QSALTQPPTVSVSPGQTARITCSGNKLGDKYVAWYQQKPGQSPMLVIYQDTKRPSRVSERFSGSNSANTATLSISGTQALDEADYYCQAWDSSIVIFGGGTRLTVL
notes: also called 559A-M29-D09 (sFab); 559A-M0029-D09

Data on 19 molecules can be found in patent publication US9266964.

Residue numbers refer to the chain shown, from its start.

For one assay, the target named is T1, pKal catalytic domain Mutant 1 (human, UniProt P03952 391-638, limits assumed).
T1 construct: domain: catalytic domain; Expressed in Pichia pastoris, purified by IMAC; not shown: His tag fusion
Description: apparent Ki (Ki,app), enzyme inhibition, pKal catalytic domain Mutant 1. As for the experimental part: (§1) Apparent Inhibition constants (K_{i,app} values) were measured by pre-incubating enzyme and inhibitor solutions prior to initiating the reactions with substrate. Enzyme and inhibitor were pre-incubated for 2 hours at 30° C. in a 96-well plate by adding 10 μL of a 10× enzyme solution and 10 μL of 10× inhibitor solutions to 70 μL of reaction buffer. Reactions were initiated by the addition of 10 μL of a 10× concentrated stock of substrate, and were monitored at 30° C. in a fluorescence plate reader with the excitation and emission wavelengths set at 360 nm/460 nm, respectively. Kinetic data were acquired by the increase in fluorescence, and initial rates for each condition were plotted against the total inhibitor concentration. The data was fit to the following equation for tight binding inhibitors: […]
Consider B1, for which the Ki turned out to be 14 nM.

Regarding B2, the Ki worked out at 4.7 nM.

Consider B3, for which the Ki stood at 0.14 nM.

For B4, the Ki was 0.4 nM.

Turning to B5, the Ki is 0.23 nM.

As for B6, the Ki is 0.26 nM.

For another assay, the target named is T2, pKal catalytic domain Mutant 2 (human, UniProt P03952 391-638, limits assumed).
T2 construct: domain: catalytic domain; Expressed in Pichia pastoris, purified by IMAC; not shown: His tag fusion
Description: apparent Ki (Ki,app), enzyme inhibition, pKal catalytic domain Mutant 2. As for the experimental part:
as §1
Consider B1, for which the Ki was found to be 20 nM.

As to B2, the Ki stood at 47 nM.

As to B3, the Ki worked out at 5.9 nM.

On to B4, for which the Ki was determined as 2.2 nM.

On to B5, for which the Ki came to 3.7 nM.

As to B6, the Ki stood at 2.5 nM.

The target of another assay is T3, human plasma kallikrein (human, UniProt P03952 20-390; P03952 391-638).
T3 construct: two disulfide linked chains; also called pKal; human pKal
T3 sequence (P03952 20-390, chain 1 of 2): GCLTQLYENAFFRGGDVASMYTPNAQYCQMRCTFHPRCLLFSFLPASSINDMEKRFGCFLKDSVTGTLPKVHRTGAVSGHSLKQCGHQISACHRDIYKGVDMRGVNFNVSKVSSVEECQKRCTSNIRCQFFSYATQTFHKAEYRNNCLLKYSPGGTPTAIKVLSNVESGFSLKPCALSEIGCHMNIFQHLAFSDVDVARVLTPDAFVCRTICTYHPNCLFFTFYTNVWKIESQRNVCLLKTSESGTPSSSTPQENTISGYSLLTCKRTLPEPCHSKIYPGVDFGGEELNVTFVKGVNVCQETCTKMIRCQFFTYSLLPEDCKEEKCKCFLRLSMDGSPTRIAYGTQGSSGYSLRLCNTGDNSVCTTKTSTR
T3 sequence (P03952 391-638, chain 2 of 2): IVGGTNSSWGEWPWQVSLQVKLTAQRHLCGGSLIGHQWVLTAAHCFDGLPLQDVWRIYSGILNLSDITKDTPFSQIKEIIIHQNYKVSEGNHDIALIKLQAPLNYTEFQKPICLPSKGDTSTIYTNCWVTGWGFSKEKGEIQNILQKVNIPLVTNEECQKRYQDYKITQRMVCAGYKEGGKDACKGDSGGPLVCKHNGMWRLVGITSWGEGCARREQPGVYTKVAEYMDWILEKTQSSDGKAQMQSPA
Description: Ki,app as an IgG, steady state enzyme kinetics, inhibition of human pKal.
B7 registered a Ki of 0.9 nM.

The molecule B8 came in with a Ki of 1.3 nM.

Regarding B9, the Ki turned out to be 3.6 nM.

A further assay concerns the target T4, wild type pKal catalytic domain (human, UniProt P03952 391-638, limits assumed).
T4 construct: domain: catalytic domain; also called WT cat; Domain; not shown: His tag fusion
Nature of the assay: apparent Ki (Ki,app), enzyme inhibition, wild type pKal catalytic domain. As for the experimental part:
as §1
Turning to B1, the Ki was 0.22 nM.

In the case of B2, the Ki was 0.13 nM.

In the case of B3, the Ki was 0.09 nM.

As to B4, the Ki worked out at 0.3 nM.

For B5, the Ki worked out at 0.16 nM.

For B6, the Ki amounted to 0.18 nM.

The target in the next assay is T5, human plasma kallikrein (full length, active) (human, UniProt P03952 20-390; P03952 391-638).
T5 construct: two disulfide linked polypeptides; also called Full length pKal; pKal
T5 sequence (P03952 20-390, chain 1 of 2): as the sequence (P03952 20-390, chain 1 of 2) above
T5 sequence (P03952 391-638, chain 2 of 2): as the sequence (P03952 391-638, chain 2 of 2) above
Nature of the assay: Ki,app: enzyme inhibition, fluorescent substrate, 2 h pre-incubation at 30 C, tight-binding fit. As for the experimental part:
as §1
The molecule B10 showed a Ki of 0.2 nM.

B11: the Ki is 0.33 nM.

B12 came in with a Ki of 0.089 nM.

As for B13, the Ki was found to be 0.6 nM.

The molecule B14 returned a Ki of 0.16 nM.

Molecule B15 yielded a Ki of 0.18 nM.

B16 displayed a Ki of 0.79 nM.

With B17, the Ki was 5.9 nM.

Regarding B18, the Ki came out at 2.9 nM.

Take B19: the Ki was found to be 0.7 nM.

A further assay deals with T6, wild type pKal catalytic domain (human, UniProt P03952 391-638, limits assumed).
T6 construct: domain: catalytic domain; The expression in Pichia pastoris with a His tag and IMAC purification is told of the mutants; also called WT cat; Domain; not shown: His tag fusion
Described as above. As for the experimental part:
as §1
Take B10: the Ki was determined as 0.22 nM.

The molecule B12 came in with a Ki of 0.09 nM.

In turn, B13 yielded a Ki of 0.3 nM.

On to B14, for which the Ki came out at 0.16 nM.

On to B15, for which the Ki was determined as 0.18 nM.

Turning to B16, the Ki is 0.16 nM.

Turning to B17, the Ki came to 2.5 nM.

The molecule B18 registered a Ki of 0.8 nM.

As for B19, the Ki came to 0.24 nM.

Another assay has as its target T7, pKal catalytic domain Mutant 1 (human, UniProt P03952 391-638, limits assumed).
T7 construct: domain: catalytic domain; Expressed in Pichia pastoris, purified by IMAC; not shown: His tag fusion
The assay is described as above. As for the experimental part: as §1
B10 showed a Ki of 14 nM.

As to B11, the Ki stood at 4.7 nM.

As for B12, the Ki stood at 0.14 nM.

The molecule B13 came in with a Ki of 0.4 nM.

The molecule B14 registered a Ki of 0.23 nM.

In turn, B15 displayed a Ki of 0.26 nM.

For B16, the Ki amounted to 0.23 nM.

For the molecule B17, the Ki turned out to be 3.4 nM.

Consider B18, for which the Ki stood at 0.09 nM.

As to B19, the Ki amounted to 0.27 nM.

The target in another assay is T8, pKal catalytic domain Mutant 2 (human, UniProt P03952 391-638, limits assumed).
T8 construct: domain: catalytic domain; Expressed in Pichia pastoris, purified by IMAC; not shown: His tag fusion
Described as above. As for the experimental part:
as §1
B10 registered a Ki of 20 nM.

Consider B11, for which the Ki was 47 nM.

For the molecule B12, the Ki was found to be 5.9 nM.

B13 registered a Ki of 2.2 nM.

On to B14, for which the Ki is 3.7 nM.

Molecule B15 came in with a Ki of 2.5 nM.

In turn, B16 showed a Ki of 0.1 nM.

As to B17, the Ki is 13.5 nM.

For the molecule B18, the Ki is 1.1 nM.

In the case of B19, the Ki amounted to 0.34 nM.
